The results in this text go back to US20040132130.

This series deals with T1, Ac-Ala-Ala-Pro-Thr(Man)-Pro-Val-Ala-Ala-Pro-NH2.
T1 chain: AAPTPVAAP

B1: His-Xpress-sGnT-I (protein)
chain: SVSALDGDPASLTREVIRLAQDAEVELERQRGLLQQIGDALSSQRGRVPTAAPPAQPRVPVTPAPAVIPILVIACDRSTVRRCLDKLLHYRPSAELFPIIVSQDCGHEETAQAIASYGSAVTHIRQPDLSSIAVPPDHRKFQGYYKIARHYRWALGQVFRQFRFPAAVVVEDDLEVAPDFFEYFRATYPLLKADPSLWCVSAWNDNGKEQMVDASRPELLYRTDFFPGLGWLLLAELWAELEPKWPKAFWDDWMRRPEQRQGRACIRPEISRTMTFGRKGVSHGQFFDQHLKFIKLNQQFVHFTQLDLSYLQREAYDRDFLARVYGAPQLQVEKVRTNDRKELGEVRVQYTGRDSFKAFAKALGVMDDLKSGVPRAGYRGIVTFQFRGRRVHLAPPLTWEGYDPSWN
With B1, the OMGnT activity (pmol/hr/mg protein) (pmol/hr/mg protein) was found to be 0.4.

B2: His-Xpress-sOMGnT(S) (protein)
chain: SSAEEAECHWADTELNRRRRRFCSKVEGYGSVCSCKDPTPIEFSPDPLPDNKVLNVPVAVIAGNRPNYLYRMLRSLLSAQGVSPQMITVFIDGYYEEPMDVVALFGLRGIQHTPISIKNARVSQHYKASLTATFNLFPEAKFAVVLEEDLDIAVDFFSFLSQSIHLLEEDDSLYCISAWNDQGYEHTAEDPALLYRVETMPGLGWVLRRSLYKEELEPKWPTPEKLWDWDMWMRMPEQRRGRECIIPDVSRSYHFGIVGLNMNGYFHEAYFKKHKFNTVPGVQLRNVDSLKKEAYEVEVHRLLSEAEVLDHSKNPCEDSFLPDTEGHTYVAFIRMEKDDDFTTWTQLAKCLHIWDLDVRGNHRGLWRLFRKKNHFLVVGVPASPYSVKKPPSVTPIFLEPPPKEEGAPGAPEQT
Regarding B2, the Km value came to 1360 µM, the OMGnT activity (pmol/hr/mg protein) (pmol/hr/mg protein) was found to be 20 and the OMGnT relative activity (%) came out at 100%.
